In US20240174741A1 (IMMUNOME, published 2024):

Key:
IL-1α = target: T1, IL-1α (human, UniProt P01583 1-271, limits assumed); test: CDI HuProt native protein microarray
T1 sequence (looked up): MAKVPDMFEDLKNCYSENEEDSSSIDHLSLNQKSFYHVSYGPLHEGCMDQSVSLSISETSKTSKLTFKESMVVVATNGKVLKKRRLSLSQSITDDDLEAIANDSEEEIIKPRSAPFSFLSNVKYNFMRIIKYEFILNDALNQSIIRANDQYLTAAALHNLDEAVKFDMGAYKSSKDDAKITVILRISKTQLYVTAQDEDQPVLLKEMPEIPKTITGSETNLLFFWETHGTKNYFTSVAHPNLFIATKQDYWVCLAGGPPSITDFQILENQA
Protocol: (§1) To confirm specificity to IL-38, several lead candidate antibodies (CD1-M3, CD1-M8, NZB-M8) were analyzed in a High-Spec Cross-reactivity Assay using native HuProt arrays (CDI Laboratories). […] of antibody was incubated overnight in a cold room, washed, and probed with anti-human secondary antibodies. Fluorescence intensity (F635) as an indicator of binding was measured for each spot. CDI software quantified the specificity of the antibody to each spot based on a Z-score. Z-score is defined as [F635−(Average F635 on array)]/(Standard deviation of F635 on array). S-score is defined as the difference between the Z-score of a given protein and the Z-score of the next highest protein.

IL-1β = IL-1β (human, UniProt P01584 1-269, limits assumed); test: CDI HuProt native protein microarray
Protocol: as §1

IL-1Ra = IL-1Ra (human, UniProt P18510 26-177, limits assumed); test: CDI HuProt native protein microarray
Protocol: as §1

IL-18 = target: T2, IL-18 (human, UniProt Q14116 1-193, limits assumed); test: CDI HuProt native protein microarray
T2 sequence (looked up): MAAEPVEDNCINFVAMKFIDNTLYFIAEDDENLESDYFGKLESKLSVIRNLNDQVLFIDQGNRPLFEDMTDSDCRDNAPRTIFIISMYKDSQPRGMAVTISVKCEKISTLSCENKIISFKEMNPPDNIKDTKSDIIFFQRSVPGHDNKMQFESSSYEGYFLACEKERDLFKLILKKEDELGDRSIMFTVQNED
Protocol: as §1

IL-36Ra = target: T3, IL-36Ra (human, UniProt Q9UBH0 1-155, limits assumed); test: CDI HuProt native protein microarray
T3 sequence (looked up): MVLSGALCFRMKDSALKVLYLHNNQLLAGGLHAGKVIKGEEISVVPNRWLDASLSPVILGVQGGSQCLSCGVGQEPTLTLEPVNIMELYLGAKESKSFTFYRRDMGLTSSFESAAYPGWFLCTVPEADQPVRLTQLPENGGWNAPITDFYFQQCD
Protocol: as §1

IL-36a = target: T4, IL-36a (human, UniProt Q9UHA7 1-158, limits assumed); test: CDI HuProt native protein microarray
T4 sequence (looked up): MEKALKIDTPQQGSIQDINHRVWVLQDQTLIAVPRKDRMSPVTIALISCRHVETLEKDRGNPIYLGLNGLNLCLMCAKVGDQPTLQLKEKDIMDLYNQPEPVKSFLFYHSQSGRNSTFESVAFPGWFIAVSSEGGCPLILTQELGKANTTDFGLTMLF
Protocol: as §1

IL-37 = target: T5, IL-37 (human, UniProt Q9NZH6 1-218, limits assumed); test: CDI HuProt native protein microarray
T5 sequence (looked up): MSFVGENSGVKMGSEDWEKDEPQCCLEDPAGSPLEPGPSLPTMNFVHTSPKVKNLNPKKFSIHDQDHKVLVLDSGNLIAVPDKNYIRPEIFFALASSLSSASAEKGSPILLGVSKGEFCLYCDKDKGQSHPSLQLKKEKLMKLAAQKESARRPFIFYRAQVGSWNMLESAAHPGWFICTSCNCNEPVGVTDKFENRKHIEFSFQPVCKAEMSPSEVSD
Protocol: as §1

IL-36b = target: T6, IL-36b (human, UniProt Q9NZH7 1-164, limits assumed); test: CDI HuProt native protein microarray
T6 sequence (looked up): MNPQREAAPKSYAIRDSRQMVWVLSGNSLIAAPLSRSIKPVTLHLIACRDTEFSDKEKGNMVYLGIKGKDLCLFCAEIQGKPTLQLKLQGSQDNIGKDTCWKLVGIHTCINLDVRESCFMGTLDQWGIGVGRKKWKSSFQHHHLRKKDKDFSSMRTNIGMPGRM
Protocol: as §1

IL-36g = target: T7, IL-36g (human, UniProt Q9NZH8 1-169, limits assumed); test: CDI HuProt native protein microarray
T7 sequence (looked up): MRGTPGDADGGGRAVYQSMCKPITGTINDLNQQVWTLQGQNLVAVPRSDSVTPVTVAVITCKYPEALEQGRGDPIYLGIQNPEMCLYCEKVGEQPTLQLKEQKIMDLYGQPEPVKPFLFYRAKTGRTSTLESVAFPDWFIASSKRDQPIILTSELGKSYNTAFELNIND
Protocol: as §1

IL-33 = target: T8, IL-33 (human, UniProt O95760 1-270, limits assumed); test: CDI HuProt native protein microarray
T8 sequence (looked up): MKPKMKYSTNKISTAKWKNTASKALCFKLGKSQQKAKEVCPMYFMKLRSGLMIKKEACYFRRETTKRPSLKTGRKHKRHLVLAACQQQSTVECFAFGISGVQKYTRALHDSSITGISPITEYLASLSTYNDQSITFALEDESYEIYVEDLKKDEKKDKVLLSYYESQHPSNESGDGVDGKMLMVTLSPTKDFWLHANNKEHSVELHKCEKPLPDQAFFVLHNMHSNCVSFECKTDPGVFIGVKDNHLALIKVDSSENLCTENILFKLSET
Protocol: as §1

Hnrnph1 = target: T9, Hnrnph1; test: CDI HuProt native protein microarray (High-Spec cross-reactivity assay)
T9 construct: The lower-case gene symbol may mean a mouse clone
T9 sequence (P31943 1-449, species assumed, looked up): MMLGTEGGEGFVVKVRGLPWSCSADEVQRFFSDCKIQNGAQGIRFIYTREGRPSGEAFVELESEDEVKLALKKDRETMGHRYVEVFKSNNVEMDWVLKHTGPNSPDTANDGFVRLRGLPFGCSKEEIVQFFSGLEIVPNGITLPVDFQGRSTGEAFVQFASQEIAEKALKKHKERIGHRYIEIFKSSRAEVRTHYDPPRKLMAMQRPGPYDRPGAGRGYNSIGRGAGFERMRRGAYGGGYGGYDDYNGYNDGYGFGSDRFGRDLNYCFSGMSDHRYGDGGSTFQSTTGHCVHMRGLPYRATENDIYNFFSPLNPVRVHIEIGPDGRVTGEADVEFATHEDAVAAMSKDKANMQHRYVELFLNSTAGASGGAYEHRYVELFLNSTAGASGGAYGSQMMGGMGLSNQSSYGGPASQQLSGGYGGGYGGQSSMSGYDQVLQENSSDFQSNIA
Protocol: as §1

Sequence of IL-1Ra (P18510 26-177 limits assumed): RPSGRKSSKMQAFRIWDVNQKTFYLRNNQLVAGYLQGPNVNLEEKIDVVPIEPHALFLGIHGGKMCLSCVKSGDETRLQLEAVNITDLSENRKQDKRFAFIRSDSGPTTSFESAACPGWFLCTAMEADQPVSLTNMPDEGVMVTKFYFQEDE

- binding result (IL-1α): no binding
- binding result (IL-1β): no binding
- binding result (IL-1Ra): no binding
- binding result (IL-18): no binding
- binding result (IL-36Ra): no binding
- binding result (IL-36a): no binding
- binding result (IL-37): no binding
- binding result (IL-36b): no binding
- binding result (IL-36g): no binding
- binding result (IL-33): no binding
- F635 (Hnrnph1): 4130
- S-Score (Hnrnph1): 5
- Z-score (Hnrnph1): 10.6
B1: CD1-M3 (antibody, V domains shown)
VH: EVQLQQSGPELVKPGASVKIPCKASGYTFTDYNMDWVKQSHGKSLEWIGDINPNNGGTIYNQKFKGKATLTVDKSSSTAYMELRSLTSEDTAVYYCSRPYYGYFAYWGQGTLVTVSA
VL: DVVMTQSPLSLPVSLGDQASISCRSSQSLVHSHENTFLHWYLQKPGQSPKLLIYRVSNRFSGVPDRFSGSGSGTDFTLKISRVEAEDLGVYFCSQSTHVPLTFGAGTKLELK
notes: Mouse monoclonal from a hybridoma of a CD-1 mouse immunized with full length recombinant IL-38
